Blank lines part the entries; values can stand above or below the molecule they belong to.
Legend:
bovine chymotrypsin = bovine chymotrypsin (Bos taurus, UniProt P00766); test: Inhibition of bovine chymotrypsin; format: biochemical; conditions: 100 ng bovine chymotrypsin, pH 10; for % Inhibition BC: at maximum concentration tested
Experimental: (§1) Several proteinase inhibitors were tested for their ability to inhibit the activity of the insensitive chymotrypsins. The buffer used for all assays was 500 mM CAPS, 75 mM NaCl, 2.5 mM MgCl2 at pH 10.

[1] = test system: chymotrypsin activity in unfractionated gut extracts from H. punctigera; test: Chymotrypsin activity in unfractionated gut extracts with proteinase inhibitors (FIG. 3); format: biochemical, Helicoverpa punctigera; conditions: larvae raised on haricot bean diet without added proteinase inhibitors; substrate SAAPFpNA
Experimental: FIG. 3 is a graphical representation showing the effect of various proteinase inhibitors on the chymotrypsin activity in unfractionated gut extracts from H. punctigera. Proteinase inhibitors were mixed with 1 μg of protein from an unfractionated gut extract before incubation with the chymotrypsin substrate N-succinyl-Ala-Ala-Pro-Phe-p-nitroanilide. Inhibition is expressed as a percentage of the total activity in the control samples.
Fourth-instar larvae were killed using ethyl-acetate prior the removal of individual gut which were then homogenized in a mortar and pestle in an equal amount [(w/v)] of 50 mM Tris-HCl, pH 8.0 containing 100 μM benzamidine. Insoluble material was removed by centrifugation at 20,000 rpm for 15 min at 4° C. and total protein concentration determined using the Bradford method (Bradford, Anal Biochem 72: 248-254, 1976) with reagents from BioRad and BSA as a standard.
Unfractionated gut extract containing approximately 1 μg of buffer soluble protein was added to 10 μL CAPS buffer (0.5 M, 3-[cyclohexylamino]-1-propane-sulfonic acid, pH 10) and made to a final volume of 100 μL in individual wells of a 96 well microtiter plate. Proteinase inhibitors were added over a range of concentrations and incubated for 15 min at 25° C. Bovine chymotrypsin (100 ng) was used as a positive control, both for activity and inhibition. The chromogenic artificial substrate SAAPFpNA (N-Succinyl-L-alanyl-L-alanyl-L-prolyl-L-phenylalanine 4-nitroanilide) was then added to a final concentration of 1 mM and hydrolysis of the substrate was measured at 405 nm using the SpectraMax 250 microtiter plate reader (Molecular Devices).

[2] = test system: chymotrypsin activity in gut extracts of H. punctigera larvae; test: Inhibition of chymotrypsin activity in individual larval gut extracts (FIG. 2F); format: biochemical, Helicoverpa punctigera; conditions: pre-incubated with 80 nM
Description: FIG. 2 is a graphical representation showing growth of H. punctigera larvae fed on either low protein haricot bean artificial diet or cotton leaf artificial diet, in the presence or absence of 0.26% (w/v) NaPIs. Weight gain (mg) was monitored for 21 days. […] (A) Growth of larvae. (B) Relative size of larvae at 21 days after feeding on cotton artificial diet, in the presence or absence of 0.26% NaPIs. […] (C) The effect of NaPIs on gut trypsin and chymotrypsin activity. When each H. punctigera larva reached the late fourth/early fifth instar stage of development, the gut was removed and gut extract prepared prior to assays for trypsin and chymotrypsin activity. […] Trypsin activity was determined using BApNA substrate and chymotrypsin activity with SAAPFpNA substrate. Units of activity are expressed as change in absorbance at 405 nm/min/mg gut extract protein (±standard deviation). […] Trypsin activity was determined using BApNA substrate and chymotrypsin activity with SAAPFpNA substrate. Units of activity are expressed as change in absorbance at 405 nm/min/mg faecal extract protein (±standard deviation). […] Frass extracts were analysed on 15% ((w/v)) SDS-PAGE and transferred to nitrocellulose. […] Units of activity are expressed as substrate hydrolysis at 405 nm/min/mg extract protein (±standard deviation). […] Trypsin activity was determined using BApNA substrate. […]

[3] = molecular target: NaPI-insensitive chymotrypsins from H. punctigera (Helicoverpa punctigera, UniProt A0PGE0); test: Inhibition of NaPI-insensitive chymotrypsin (gut extract depleted of trypsins and NaPI-sensitive chymotrypsins); format: biochemical; conditions: pH 10, 30 min preincubation at 30° C.
Chain of NaPI-insensitive chymotrypsins from H. punctigera (A0PGE0 entry or part of it): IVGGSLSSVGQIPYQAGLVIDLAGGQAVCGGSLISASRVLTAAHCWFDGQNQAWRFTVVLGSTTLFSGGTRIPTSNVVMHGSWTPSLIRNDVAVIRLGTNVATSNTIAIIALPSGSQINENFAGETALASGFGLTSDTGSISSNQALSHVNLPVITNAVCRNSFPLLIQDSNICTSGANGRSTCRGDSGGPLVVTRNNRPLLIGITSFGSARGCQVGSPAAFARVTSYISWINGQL
Experimental: The midgut was dissected from 100 fourth instar larvae and buffer soluble extracts were prepared. The gut extract was depleted of NaPI-sensitive proteases by passage through an affinity column composed of immobilized NAPI protein (C1, C2, T1-T4). […] This preparation of unbound material was used to study the pH optimum, substrate preference and effect of a range of proteinase inhibitors on the activity of the NaPI-insensitive proteinase. […] The best substrate for enzyme assays was determined using seven different commercial substrates.
as §1

[4] = test system: trypsin activity in gut extracts; conditions: in vitro, cited from earlier work
[5] = test system: chymotrypsin from the gut of H. zea larvae; conditions: cited from earlier work
[6] = test system: Agrotis ipsilon (black cutworm); conditions: after exposure in the diet; cited from earlier work

Molecule: CC(C)C[C@H](NC(=O)[C@@H](NC(=O)N[C@@H](Cc1ccccc1)C(=O)O)[C@@H]1CCN=C(N)N1)C(=O)N[C@H](C=O)Cc1ccccc1 [Chymostatin, reference compound]
% Inhibition BC (bovine chymotrypsin): 100% | inhibition of gut chymotrypsin activity (in words) [1]: totally inhibited | inhibition of chymotrypsin activity, extracts from control and NaPI-fed larvae [2]: all chymotrypsin activity was abolished

% Inhibition Insensitive ([3]; at maximum concentration tested): 82% | IC50 [3]: 33 µM | IC50 (bovine chymotrypsin): 13 µM | % Inhibition BC (bovine chymotrypsin): 94%
B1: SBTI: soybean trypsin inhibitor (protein, UniProt P01070 25-205, looked up)
Trypsin inhibitor A: DFVLDNEGNPLENGGTYYILSDITAFGGIRAAPTGNERCPLTVVQSRNELDKGIGTIISSPYRIRFIAEGHPLSLKFDSFAVIMLCVGIPTEWSVVEDLPEGPAVKIGENKDAMDGWFRLERVSDDEFNNYKLVFCPQQAEDDKCGDIGISIDHDDGTRRLVVSKNKPLVVQFQKLDKESL
inhibition of gut chymotrypsin activity (in words) [1]: failed to abolish all the chymotrysin activity | inhibition of gut trypsin activity in larvae that had consumed SBTI ([4]; 48 h on diet with 1% SBTI): 3% | inhibition of trypsin activity in gut extracts from control larvae [4]: 74% | inhibition of chymotrypsin activity from the gut of insects with prior exposure to SBTI in the diet [5]: 35% | inhibition of chymotrypsin from the gut of control insects [5]: 95% | reduction in total gut proteolytic activity [6]: ≤ 70%

— patent publication US7462695B2, “Insect chymotrypsin and inhibitors thereof” (Hexima Limited, priority 2003, dated 2008)
